# Where a chain is given by its changes, count along the chain named.
# B1: scfv fragment of ADI-37532 (scFv, V domains shown)
# VH: QVQLVESGGGVVQPGRSLRLSCAASGFTFSSYSMHWVRQAPGKGLEWVAHIVEGSDKYYADSVKGRFTISRDNSKNTLYLQMNSLRAEDTAVYYCARSRYDWSLFDIWGQGTMVTVSS
# VL: EIVLTQSPGTLSLSPGERATLSCGASQSVSSSYLAWYQQKPGQAPRLLIYGASSRATGIPDRFSGSGSGTDFTLTISRLEPEDFAVYYCQQYVLYPFTFGGGTKVEIK
# B2: ADI-34071 (antibody, human IgG4 S228P, kappa, F234A L235A, V domains shown)
# VH: EVQLVESGGGLVQPGRSLRLSCAASGFTFDDYAMHWVRQAPGKGLEWVSGISWSSGSIGYADSVKGRFTISRDNAKNSLYLQMNSLRAEDTAVYYCAKDRRYGLTYGMDVWGQGTTVTVSS
# VL: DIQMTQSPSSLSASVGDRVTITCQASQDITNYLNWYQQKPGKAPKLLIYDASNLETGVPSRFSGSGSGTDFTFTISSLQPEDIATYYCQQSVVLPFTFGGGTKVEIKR
# notes: Parental antibody from the yeast library
# B3: ADI-34095 (antibody, human IgG4 S228P, kappa, F234A L235A, V domains shown)
# VH: QVQLVESGGGVVQPGRSLRLSCAASGFTFSSYGMHWVRQAPGKGLEWVAVISYEGSNKYYADSVKGRFTISRDNSKNTLYLQMNSLRAEDTAVYYCARGGARYPIAFDIWGQGTMVTVSS
# VL: DIQLTQSPSSVSASVGDRVTITCRASQDISSWLAWYQQKPGKAPKLLIYAASSLQSGVPSRFSGSGSGTDFTLTISSLQPEDFATYYCQQANDFPITFGGGTKVEIKR
# B4: scfv fragment of ADI-37513 (scFv, V domains shown)
# VH: B3 VH with Q1E, V5L, S30N, S31F, S52N, Y53D, S56I
# VL: DIQLTQSPSSVSASVGDRVTITCRASQDISSWLAWYQQKPGKAPKLLIYAASSLQSGVPSRFSGSGSGTDFTLTISSLQPEDFATYYCQQANDFPITFGGGTKVEIK
# B5: scfv fragment of ADI-37522 (scFv, V domains shown)
# VH: B3 VH with S31H, Y53D, G100W, A101L
# VL: B4 VL
# B6: ADI-34101 (antibody, human IgG4 S228P, kappa, F234A L235A, V domains shown)
# VH: QVQLVESGGGVVQPGRSLRLSCAASGFTFSSYGMHWVRQAPGKGLEWVAVISYEGSNKYYADSVKGRFTISRDNSKNTLYLQMNSLRAEDTAVYYCARSRYDWSLFDIWGQGTMVTVSS
# VL: EIVLTQSPGTLSLSPGERATLSCRASQSVSSSYLAWYQQKPGQAPRLLIYGASSRATGIPDRFSGSGSGTDFTLTISRLEPEDFAVYYCQQYVLYPFTFGGGTKVEIKR
# notes: Parental antibody
# B7: Oleclumab (antibody, V domains shown)
# VH: EVQLLESGGGLVQPGGSLRLSCAASGFTFSSYAYSWVRQAPGKGLEWVSAISGSGGRTYYADSVKGRFTISRDNSKNTLYLQMNSLRAEDTAVYYCARLGYGRVDEWGRGTLVTVSS
# VL: QSVLTQPPSASGTPGQRVTISCSGSLSNIGRNPVNWYQQLPGTAPKLLIYLDNLRLSGVPDRFSGSKSGTSASLAISGLQSEDEADYYCATWDDSHPGWTFGGGTKLTVL
# B8: ADI-34074 (antibody, human IgG4 S228P, kappa, F234A L235A, V domains shown)
# VH: EVQLVESGGGLVQPGRSLRLSCAASGFTFDDYAMHWVRQAPGKGLEWVSGISWSSGSIGYADSVKGRFTISRDNAKNSLYLQMNSLRAEDTAVYYCAKGKYLPTGSVDYWGQGTLVTVSS
# VL: EIVLTQSPGTLSLSPGERATLSCRASQSVSSSYLAWYQQKPGQAPRLLIYGASSRATGIPDRFSGSGSGTDFTLTISRLEPEDFAVYYCQQYYDYPPITFGGGTKVEIKR
# notes: Parental antibody; also called AD-34074
# B9: scfv fragment of ADI-37497 (scFv, V domains shown)
# VH: B8 VH with R16G, A33F, S57P, G59D
# VL: EIVLTQSPGTLSLSPGERATLSCRASQSVSSSYLAWYQQKPGQAPRLLIYGASSRATGIPDRFSGSGSGTDFTLTISRLEPEDFAVYYCQQYYDYPPITFGGGTKVEIK
# B10: scfv fragment of ADI-37496 (scFv, V domains shown)
# VH: B8 VH with Y32F, A33Y, G56T, G59D
# VL: B9 VL
# B11: ADI-34104 (antibody, human IgG4 S228P, kappa, F234A L235A, V domains shown)
# VH: QVQLQESGPGLVKPSETLSLTCAVSGYSISSGYYWGWIRQPPGKGLEWIGSIYHSGSTYYNPSLKSRVTISVDTSKNQFSLKLSSVTAADTAVYYCARASIYTPPPEYFQHWGQGTLVTVSS
# VL: DIQMTQSPSTLSASVGDRVTITCRASQSISSWLAWYQQKPGKAPKLLIYDASSLESGVPSRFSGSGSGTEFTLTISSLQPDDFATYYCQQSRIYSTFGGGTKVEIKR
# notes: Parental antibody
# B12: scfv fragment of ADI-37542 (scFv, V domains shown)
# VH: B11 VH with S31E, S55T, S57F
# VL: DIQMTQSPSTLSASVGDRVTITCRASQSISSWLAWYQQKPGKAPKLLIYDASSLESGVPSRFSGSGSGTEFTLTISSLQPDDFATYYCQQSRIYSTFGGGTKVEIK
# B13: scfv fragment of ADI-37543 (scFv, V domains shown)
# VH: B11 VH with G36A, Y53F, S57F, Y59F
# VL: B12 VL
# B14: ADI-34086 (antibody, human IgG4 S228P, kappa, F234A L235A, V domains shown)
# VH: EVQLLESGGGLVQPGGSLRLSCAASGFTFSNYAMSWVRQAPGKGLEWVSAISGSGGSTYYADSVKGRFTISRDNSKNTLYLQMNSLRAEDTAVYYCARGGPYGSGSYWDTFDYWGQGTLVTVSS
# VL: EIVMTQSPATLSVSPGERATLSCRASQSVSSNLAWYQQKPGQAPRLLIYGASTRATGIPARFSGSGSGTEFTLTISSLQSEDFAVYYCQQYTNHYTFGGGTKVEIKR
# notes: Parental antibody
# How the values were obtained:
# [1] = target: T1, cynomolgus monkey CD73 antigen (cynomolgus monkey, UniProt A0A2K5V5U7 27-547); assay: ForteBio BLI; antigen on sensor, 100 nM scFv; monovalent; 1:1 model
# T1 construct: also called Biotinylated cynomolgus monkey CD73
# T1 sequence: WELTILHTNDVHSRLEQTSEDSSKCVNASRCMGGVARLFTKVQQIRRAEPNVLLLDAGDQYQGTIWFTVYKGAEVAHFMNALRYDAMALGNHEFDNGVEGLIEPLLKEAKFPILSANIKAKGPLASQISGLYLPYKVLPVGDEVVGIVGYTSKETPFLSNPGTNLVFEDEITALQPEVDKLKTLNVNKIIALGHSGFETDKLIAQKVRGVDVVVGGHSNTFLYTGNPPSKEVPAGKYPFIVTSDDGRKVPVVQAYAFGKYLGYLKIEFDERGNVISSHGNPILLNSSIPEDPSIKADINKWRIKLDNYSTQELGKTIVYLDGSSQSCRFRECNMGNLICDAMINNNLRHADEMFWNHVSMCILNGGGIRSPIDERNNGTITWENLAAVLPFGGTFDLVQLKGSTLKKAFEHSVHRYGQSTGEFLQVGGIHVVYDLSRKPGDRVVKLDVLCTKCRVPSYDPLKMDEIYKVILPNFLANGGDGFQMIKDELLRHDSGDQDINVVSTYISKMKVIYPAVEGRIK
# Protocol: (§1) Human or cynomolgus monkey CD73 antigen protein was loaded on-line to the AHQ sensor (ForteBio) for ForteBio affinity measurement. […] Kinetic analysis was performed by using a 1:1 binding model.
# human CD73 antigen [2] = target: T2, human CD73 antigen (human, UniProt P21589 27-547); assay: as above
# T2 construct: also called Biotinylated Human CD73
# T2 sequence (looked up): T1 sequence with T199M, A350T, I466V
# Protocol: as §1
# [3] = target: T3, human CD73 expressed on the cell surface (human, UniProt P21589 27-549); assay: cell-based or functional assay
# T3 sequence: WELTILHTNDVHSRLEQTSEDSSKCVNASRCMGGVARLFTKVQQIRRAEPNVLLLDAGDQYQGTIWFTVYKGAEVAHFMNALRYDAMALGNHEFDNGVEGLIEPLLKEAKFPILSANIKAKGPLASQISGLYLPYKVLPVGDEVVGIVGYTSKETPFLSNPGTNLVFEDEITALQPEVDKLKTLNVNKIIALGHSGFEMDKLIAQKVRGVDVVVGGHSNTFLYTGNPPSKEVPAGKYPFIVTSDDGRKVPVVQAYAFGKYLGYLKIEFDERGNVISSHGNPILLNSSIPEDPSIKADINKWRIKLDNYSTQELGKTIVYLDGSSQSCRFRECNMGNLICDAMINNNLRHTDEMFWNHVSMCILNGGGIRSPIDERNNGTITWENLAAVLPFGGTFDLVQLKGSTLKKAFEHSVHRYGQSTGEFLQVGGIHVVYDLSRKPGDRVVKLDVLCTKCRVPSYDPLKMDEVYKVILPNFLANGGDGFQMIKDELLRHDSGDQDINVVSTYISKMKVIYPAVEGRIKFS
# [4] = target: T1, cynomolgus monkey CD73 antigen; assay: ForteBio BLI; IgG on AHQ sensor, 100 nM antigen; bivalent; 1:1 model
# Protocol: (§2) Briefly, the sensor was equilibrated off-line in assay buffer for 30 min, then on-line detection was carried out for 60 sec to establish a baseline. The purified antibody obtained as described above was loaded on-line to the AHQ sensor (ForteBio) for ForteBio affinity determination. The sensor loaded with the antibody was then exposed to 100 nM of human or cynomolgus monkey antigen for 5 minutes, after which the sensor was transferred to assay buffer for dissociation for 5 minutes to determine the dissociation rate. Kinetic analysis was performed by using a 1:1 binding model.
# human CD73 antigen [5] = target: T2, human CD73 antigen; assay: as above
# Protocol: as §2
# [6] = target: T3, human CD73 expressed on the cell surface; assay: cell-based or functional assay; remark: listed apart in the source
binder,measurement,setting,value
B1,Kd,[1],0.53 nM
same,Kd,human CD73 antigen [2],0.581 nM
B2,"CD73 enzymatic activity assay IC50 (Calu-6 cells, CellTiter-Glo)",[3],0.171 µg/mL
same,Kd,[4],1.34 nM
same,Kd,human CD73 antigen [5],0.892 nM
B3,"CD73 enzymatic activity assay IC50 (Calu-6 cells, CellTiter-Glo)",[3],0.279 µg/mL
B4,Kd,[1],2.26 nM
same,Kd,human CD73 antigen [2],2.84 nM
B5,Kd,[1],2.93 nM
same,Kd,human CD73 antigen [2],2.43 nM
B6,"CD73 enzymatic activity assay IC50 (Calu-6 cells, CellTiter-Glo)",[3],0.153 µg/mL
same,Kd,[4],1.57 nM
same,Kd,human CD73 antigen [5],1.07 nM
B7,IC50 for inhibiting the enzymatic activity of CD73 (Calu-6 cells),[6],0.177 µg/mL
same,"CD73 enzymatic activity assay IC50 (Calu-6 cells, CellTiter-Glo)",[3],0.167 µg/mL
same,Kd,[4],0.96 nM
same,Kd,human CD73 antigen [5],0.948 nM
B8,"CD73 enzymatic activity assay IC50 (Calu-6 cells, CellTiter-Glo)",[3],0.476 µg/mL
same,Kd,[4],3.13 nM
same,Kd,human CD73 antigen [5],2.12 nM
B9,Kd,[1],8.82 nM
same,Kd,human CD73 antigen [2],10.2 nM
B10,Kd,[1],13.7 nM
same,Kd,human CD73 antigen [2],13.8 nM
B11,"CD73 enzymatic activity assay IC50 (Calu-6 cells, CellTiter-Glo)",[3],0.142 µg/mL
same,Kd,human CD73 antigen [5],0.847 nM
B12,Kd,[1],5.47 nM
same,Kd,human CD73 antigen [2],6.04 nM
B13,Kd,[1],2.99 nM
same,Kd,human CD73 antigen [2],3.85 nM
B14,"CD73 enzymatic activity assay IC50 (Calu-6 cells, CellTiter-Glo)",[3],0.089 µg/mL
same,Kd,[4],1.9 nM
same,Kd,human CD73 antigen [5],1.23 nM

# Source: patent publication US20230312741A1 (published 2023)
